Measurements from the DeepSol protein solubility set.

Assay: soluble on expression in E. coli; label from the status in PepcDB or PDB records
In the case of “MGSDKIHHHHHHMLDDIKKTLWAAADKLRANVDAAEYKHLVLGLIFLKFVSDTFAARRAELERRFVDVNDDYFLHDADADFIAEELEERDYYIEVNVFWVPEPARWEGLRANAKQANIGKQIDDALDAIEKENPSLKGILDKRYARAPLPDGKLGELVDLISTIGFGEDQSKARDILGQVYEYFLGQFASAEGKKGGQFYTPQSIVNTLVAVLDPHQGKVYDPCCGSGGMFVQSEKFIEAHGGKLGDVSIYGQESNPTTWRLAAMNLAIRGIDFNLGREPGDTFTKNQHSDLRADYILANPPFNISDWWHGSLEGDPRWVYGNPPQGNANYAWLQHMLYHLKPTGRAGIVLANGSMSSSQNTEGDIRRAMVDADVVEVMVALPGQLFFNTQIPACLWFLTKQKTARKGEVLFIDARKLGKMISRVQSELDQAAIDRIANTAKAWRGEDMTGVEGFEDGYQDIPGFCRSVPLSEIAEHGHVLTPGRYVGAEEVEDCDDAFADKMTMLTEKLAEQMAKGAELDQLIRQKLGGLGYEF”, the “soluble on expression in E. coli” value was “not soluble”. For “MFIKIFLITYRYKLTVISIIGGGTIGSSIAIPLKRSGFEVIVTRRNTAVLKHLESYGISVMSDNKTASKEADVVFLTLKPVDIIPEVRKIEENIRGKLLISMAAAIPLKLIKDAAPHSIVVRAMTNIAAKVGAGFTPFCVDDGDQEVAKRASSILSALGEVYLVEEKYMDALTALSGSGPAYILTIIEAMMYGGLKLGLPRDLALKASYQTVMGSAKLLAESGEHPSELKEKVITPGGTTIDGIYELEDARVRTAIMKAIEVSTMKANKISESIKKLEQLEHHHHHH”, the “soluble on expression in E. coli” value was “not soluble”. With “MAHHHHHHMDEEVVLRGVEDITCRCVYSHVYVYARVCVFGYVLPSSSVVYRGTLAMECTFGVHEKKNKMKKNKCYLRGQTIGTRDTVCGVMCLNIPPRHCYCSFFLFPFYNPFLL” the “soluble on expression in E. coli” value was “not soluble”. In the case of “MAAESQLKRVIETLRRLGIEEVLKLERRDPQYRAVCNVVKRHGETVGSRLAMLNALISYRLTGKGEEHWEYFGKYFSQLEVIDLCRDFLKYIETSPFLKIGVEARKKRALKACDYVPNLEDLGLTLRQLSHIVGARREQKTLVFTIKILNYAYMCSRGVNRVLPFDIPIPVDYRVARLTWCAGLIDFPPEEALRRYEAVQKIWDAVARETGIPPLHLDTLLWLAGRAVLYGENLHGVPKEVIALFQWRGGCRPPSE”, the “soluble on expression in E. coli” value was “soluble”. With “MIIVRLCGGLGNQMFQYAAGLAAAHRIGSEVKFDTHWFDATCLHQGLELRRVFGLELPEPSSKDLRKVLGACVHPAVRRLLSRRLLRALRPKSLVIQPHFHYWTGFEHLTDNVYLEGYWQSERYFSNIADIIRQQFRFVEPLDPHNAALMDEMQSGVSVSLHIRRGDYFNNPQMRRVHGVDLSEYYPAAVATMIEKTNAERFYVFSDDPQWVLEHLKLPVSYTVVDHNRGAASYRDMQLMSACRHHIIANSTFSWWGAWLNPRPDKVVIAPRHWFNVDVFDTRDLYCPEWIVLLEHHHHHH” the “soluble on expression in E. coli” value was “soluble”. In the case of “MSLLSYRHAFHAGNHADMLKHFTLFLVLQYFNRKDKPYWYIDTHGGAGVYNLEGSEAQKVGEYRQGIALLRQAQNLPAELSDFAAHIQKILPSPELYCGSPWLAQSLTRVGDKLRLFELHPTDFVHLQNNMGEAGLGKRGQVLREDGYKGLISLLPPPPRRAAVLIDPPYEEKQDYWRVTETLKSALKRFESGCYLIWYPCLSREESRKLPEELKKLVPDNYLHAELHVHAPKADGFGMHGSGMFVINPPYLLAEQLAANLPALTRLLAQDEGARYLLDSKEGHHHHHH”, the “soluble on expression in E. coli” value was “soluble”. For “MPNPFSKGWKYLTASLDNKIEENADPVIQIKQAAEAAKKQHADIEQQAASVIGNRNQLQMKLNRLLKDQQSIQEKARQALSLSDSATDPAEQHKYLNAAEVYASQLVGVESEIEQTTTLHQQAEQAAEQATQQVKQSEARLHEQLSQINELTTQAQQAKMQEAAVAASDQINSIDPDRDVPTMDSIREKIERRYADALGSQELMQSSMNERIHEIEATTSERDMRANAKLDAIRAQMRGELPAGSEETEPPADK”, the “soluble on expression in E. coli” value was “not soluble”. With “MTHHTEVFEGGTIDIEDDTSLTINGKEISYVHDAVKNKWSSRYLPYTQYDSLLDLARAIIRDTVEFSGVKE” the “soluble on expression in E. coli” value was “soluble”. For “MMKIIAFVGMPASGKSEASRIAAEMGIPVIIMGDVIRKEVLKRGLEPNDSNTGMVATDLRKHEGMGAVARRCISQIRETGSELVVVDGVRGIAEVECFRKEFGKGFILISIYAPIEVRFSRVQKRGRSDDMNSIEGLRHRDERELSWGMGEAIDASNVEIENNFTLETFRKDVRDVLSNYLEADLEK”, the “soluble on expression in E. coli” value was “not soluble”. In the case of “MAGGGNFIARVISYVANEFIVNGLANSHAFQRFAVRTSKRIENLSKMAAENREKVAQQMEEFAKNIDVIHEETLIILVWNLKTSVNHMGQLK”, the “soluble on expression in E. coli” value was “not soluble”. In the case of “MSLKKPLIVQKFGGTSVGSIERMQTVAEHIIKAKNDGNQVVVVVSAMAGETNRLVGLAQQVDSVPNARELDVLLSAGEQVSMALVAMTLHKMGYAARSLTGAQANIVTDNQHNDATIKHIDTRTITELLEQDFIVIVAGFQGINENGDITTLGRGGSDTSAVALAGALNADECQIFTDVDGIYTCDPRIVPSARKLDVIDFPSMEEMARKGAKVLHLPCVQYAWKHAVPLRVLSTFEVNQGSLIKGSAATHAVCGIALQRDMALIRVESESFPSIIKQCQMLGIEVCTTIDEPTHSAFVIKRDAYAKLQLVGADKIRGSEPVSLITKVGIQAGALVAHARQTLAQHGIDVRYVSASEQSSMLMLDPANVDRAANILHETYVTSEIPQEFGLKQTFLGEGHHHHHH”, the “soluble on expression in E. coli” value was “not soluble”. With “SEAVRPDSCESGPAAPRAEERPAPEARVHFRVTRFIMEAGVKLGMQSIPIATACTIYHKFFCEINLDAYDLYLVAMSSIYLAGKVEEQHLRTRDIINVSHRYFNPGSEPLELDSRFWELRDSIVQCELLMLRVLRFQVSFQHPHKYLLHYLISLKNWLNRYSWQRTPISVTAWALLRDSYHGGLCLRFQAQHLAVAVLYLALQVYGVEVPAEGEAEKPWWQVFSDDLTKPIIDNIVSDLIQIYTMDTEIP” the “soluble on expression in E. coli” value was “soluble”. For “MKAKDVKLLARYLEMLKDPNIIKTQDVFTVIRYISYNSYGKTMAWNWIQLNWDYLVSRFTINDRYLGRIVTIAEPFNTELQLWQMQSFFAKYPNAGAGAKPREQVLETVKNNIEWLNVNRQSIREWFASLP”, the “soluble on expression in E. coli” value was “not soluble”. For “ENSVFFGKKKKVSLHLLVDPDMKDEIIKYAQEKDFDNVSQAGREILKKGLEQIA”, the “soluble on expression in E. coli” value was “soluble”. For “MYRQALASGEKIFAVAPMIDWTDTRCRFLHRQLSKRALLFTEMIVADAIIHGQREKLLGYHPQEHPVALQLGGSNPAKLAEAVRIAGDYGYDEINLNVGCPSDRVQSGTFGACLMREPEVVAQCISAMKAVAAVPVTVKCRIGVDDQEPETVLPDFLARVVAAGADAVWVHARKAWLQGLSPKENREVPPLDYDLVYRMKRDNPDVFIGINGGIADLDQAGEHLKYVDGVMLGRAAYHNTSILADVDHRIHGEEALQYDWMALRDTMMAYAADYIATGGRLNHVTRHMVGLFQGMPGARRFRQILSSDATRPGAGPEVIEAAFAAIDFNPMKELAG”, the “soluble on expression in E. coli” value was “not soluble”. In the case of “GSPREKVAMEYLQSASRVLTRSQLRDVVASSHLLQSEFMEIPMNFVDPKEIDIPRHGTKNRYKTILPNPLSRVCLRPKNITDSLSTYINANYIRGYSGKEKAFIATQGPMINTVNDFWQMVWQEDSPVIVMITKLKEKNEKCVLYWPEKRGIYGKVEVLVTGVTECDNYTIRNLVLKQGSHTQHVKHYWYTSWPDHKTPDSAQPLLQLMLDVEEDRLASEGRGPVVVHCSAGIGRTGCFIATSIGCQQLKEEGVVDALSIVCQLRVDRGGMVQTSEQYEFVHHALCLFESRLSPETV”, the “soluble on expression in E. coli” value was “soluble”. For “SLKGRWVKYLLMGTVVAMLAACSSKPTDRGQQYKDGKFTQPFSLVNQPDAVGAPINAGDFAEQINHIRNSSPRLYGNQSNVYNAVQEWLRAGGDTRNMRQFGIDAWQMEGADNYGNVQFTGYYTPVIQARHTRQGEFQYPIYRMPPKRGRLPSRAEIYAGALSDKYILAYSNSLMDNFIMDVQGSGYIDFGDGSPLNFFSYAGKNGHAYRSIGKVLIDRGEVKKEDMSMQAIRHWGETHSEAEVRELLEQNPSFVFFKPQSFAPVKGASAVPLVGRASVASDRSIIPPGTTLLAEVPLLDNNGKFNGQYELRLMVALDVGGAIKGQHFDIYQGIGPEAGHRAGWYNHYGRVWVLKTAPGAGNVFSG”, the “soluble on expression in E. coli” value was “not soluble”.
